Source: article PMC2889927

Target: lactosylceramide-loaded recombinant human CD1d complex (human) (UniProt P15813)
Assay: SPR

Sequence of recombinant soluble iNKT TCR 4C1369 (Vα24/Vβ11 heterodimer) (A0A0B4J240 whole entry, looked up, tested part not stated, one chain of several): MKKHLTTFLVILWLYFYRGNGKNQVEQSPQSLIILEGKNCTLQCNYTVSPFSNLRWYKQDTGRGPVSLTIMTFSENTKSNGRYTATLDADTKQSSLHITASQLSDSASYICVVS
Sequence of lactosylceramide-loaded recombinant human CD1d complex (human) (P15813 20-335, one chain of several): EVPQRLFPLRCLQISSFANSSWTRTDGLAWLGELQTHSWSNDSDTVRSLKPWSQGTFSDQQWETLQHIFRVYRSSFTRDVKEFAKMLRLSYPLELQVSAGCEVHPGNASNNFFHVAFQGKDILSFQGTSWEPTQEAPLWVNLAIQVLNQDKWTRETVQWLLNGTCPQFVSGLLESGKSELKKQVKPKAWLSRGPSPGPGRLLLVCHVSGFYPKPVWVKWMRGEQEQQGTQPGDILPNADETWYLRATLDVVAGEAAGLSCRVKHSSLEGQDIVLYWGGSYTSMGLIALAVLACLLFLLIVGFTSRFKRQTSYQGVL

Kd: 2030 nM
Substance: recombinant soluble iNKT TCR 4C1369 (Vα24/Vβ11 heterodimer) (from UniProt A0A0B4J240)
